Measured values reported in US20190284243A1, “BINDING PEPTIDES” (University of Copenhagen, priority 2016, published 2019).
Bridge positions count the residues as written; N and C are the ends. Square brackets hold non-standard residues; d marks the D form. Ends that are not written are not given here. dPra = C#CC[C@@H](N)C(=O)O

How the values were obtained:
Il10 = Il10 (Homo sapiens, UniProt P22301); assay: Binding of β-bodies with the target compound (Table 1), Il10; conditions: Purpose Il10; tested for binding with the target compound
Il10, sequence (P22301 19-178, species assumed): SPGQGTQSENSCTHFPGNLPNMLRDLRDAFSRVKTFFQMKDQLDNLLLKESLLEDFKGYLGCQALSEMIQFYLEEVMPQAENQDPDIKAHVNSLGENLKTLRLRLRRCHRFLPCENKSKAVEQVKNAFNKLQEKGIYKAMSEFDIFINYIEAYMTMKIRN

HRMVRG-PEGA1900 = assay: Binding to hexapeptide beads, green fluorescence associated with the beads; conditions: protein overexpressed in E. coli
Excerpt: The fusion protein as well as EGFP was overexpressed in E. coli and purified from the cell lysate using a PEGA solid support with the hexapeptide partner, […] NO: 4), attached.

Papain = target: T1, Papain (Carica papaya, UniProt P00784); assay: Binding of β-bodies with the target compound (Table 1), Papain; conditions: Purpose Papain; tested for binding with the target compound
T1 sequence (P00784 134-345): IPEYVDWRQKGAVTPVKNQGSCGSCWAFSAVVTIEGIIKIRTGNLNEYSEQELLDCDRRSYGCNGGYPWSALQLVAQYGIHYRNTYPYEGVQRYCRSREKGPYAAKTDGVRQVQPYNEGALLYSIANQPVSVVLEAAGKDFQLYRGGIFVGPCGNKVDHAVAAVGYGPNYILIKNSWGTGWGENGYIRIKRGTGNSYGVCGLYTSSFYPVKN

Il2 = Il2 (Homo sapiens, UniProt P60568); assay: Binding of β-bodies with the target compound (Table 1), Il2; conditions: Purpose Il2; tested for binding with the target compound
Il2, sequence (P60568 21-153, species assumed): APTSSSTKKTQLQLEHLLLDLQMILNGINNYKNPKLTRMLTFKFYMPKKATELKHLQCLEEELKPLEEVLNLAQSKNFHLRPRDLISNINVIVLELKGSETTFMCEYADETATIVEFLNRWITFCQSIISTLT

Interleukin 2 = Interleukin 2 (Homo sapiens, UniProt P60568); assay: Sandwich binding assay on PEGA beads, IL2 model
Interleukin 2, sequence (P60568 21-153, species assumed): as above
Description: For sandwich assays β-bodies identified as described in Examples 1 and 2 were synthesized by standard Fmoc-based solid phase peptide synthesis on biocompatible PEGA-beads (e.g. PEGA1900 which has a porosity allowing penetration of proteins up to 70 kDa). PEGA beads are available from Sigma Aldrich.
The sandwich binding assay was performed as follows: four beads with ligand C prepared as described above were added to 50 μL MilliQ water in a microtiter well containing 100 nM of the peptide D. The well was imaged with an ICX73 fluorescence microscope (Olympus) using a ROX filter cube.
The intensity of the fluorescence is a measure of the concentration of IL2 and the affinity of the interaction. The result obtained after 3 min. incubation is shown in FIG. 10 and after 20 min. incubation in FIG. 1D.

GFP = GFP 60 nM, both bead types incubated at the same time
Description: GFP (60 nM) was incubated with different β-body beads at the same time, a first type of β-body beads specific for GFP (β-body SEQ ID NO: 1;
[…]) and a second type of β-body beads specific for IL1 (β-body SEQ ID NO: 5).

Il1 = assay: Selectivity assay GFP vs. IL1: beads incubated with ROX-IL1; format: binding; conditions: ROX-IL1 100 nM, both bead types incubated at the same time
Excerpt: The same experiment was repeated with IL1.

eGFP = eGFP (Aequorea victoria, UniProt P42212, F64L/H231L/S65T); conditions: Purpose eGFP; tested for binding with the target compound
[1] = ligand 3 beads + 100 nM ligand 4, Interleukin 2 50 nM, 3 and 20 min
[2] = ligand 3 beads + 100 nM ligand 4, without IL2 (interaction between the two β-bodies)

ATNTLTMTWPGRTNTDTFTW (Designed peptide) [SEQ ID NO: 20]
Binding (Il10): High

EGFP: Enhanced Green Fluorescent Protein, overexpressed in E. coli; control without β-body
Binding to HRMVRG-PEGA1900 (green fluorescence associated with the beads) (HRMVRG-PEGA1900): does not

IHV-abu(N3)-VTTRTMPGHPIAGADA-pra-TG (IHV[dAbu(N3)]VTTRTMPGHPIAGADA[dPra]TG; triazole 4-21 (inferred); also: X4 listed as D-3-azido-2-aminobutanoic acid, mods say azidohomoalanine) [SEQ ID NO: 49]
Binding (Papain): Medium

NTVTNTMTRPGVTETVTQTD (Designed peptide) [SEQ ID NO: 15]
Binding (Il2): High | ROX fluorescence accumulation in the beads (Interleukin 2; [1]): positive signal | ROX fluorescence accumulation in the beads (Interleukin 2; ligand 3 beads + 100 nM ligand 4, Interleukin 2 50 nM, 3 and 20 min, listed as C): accumulation of significant ROX fluorescence | ROX fluorescence accumulation in the beads (Interleukin 2; [2]): no signal | ROX fluorescence accumulation in the beads (Interleukin 2; ligand 3 beads + 100 nM ligand 4, without IL2 (interaction between the two β-bodies), listed as C): No fluorescence accumulation over background

TETKTVTITRPKMTWTFTHTVTG (Designed peptide; PEPTIDE (1)..(23) GFP) [SEQ ID NO: 1]
Binding of β-body beads to GFP (GFP): underwent binding | Binding of β-body beads to IL1 (Il1): only β-body beads specific for IL1 underwent binding | Binding (eGFP): High

TKTRTYTIPGERYTDTWA (Designed peptide) [SEQ ID NO: 21]
Binding (Il10): High

TRTLTYTEPGITQTKTEA (Designed peptide) [SEQ ID NO: 14]
Binding (Il2): High | ROX fluorescence accumulation in the beads (Interleukin 2; [1]): positive signal | ROX fluorescence accumulation in the beads (Interleukin 2; ligand 3 beads + 100 nM ligand 4, Interleukin 2 50 nM, 3 and 20 min, listed as D): accumulation of significant ROX fluorescence | ROX fluorescence accumulation in the beads (Interleukin 2; [2]): no signal | ROX fluorescence accumulation in the beads (Interleukin 2; ligand 3 beads + 100 nM ligand 4, without IL2 (interaction between the two β-bodies), listed as D): No fluorescence accumulation over background
